# According to the supplement of paper PMC9170038:
# Tested on: K4 kissing-loop RNA reporter
# Assay: apparent KD of K4 kissing-loop reporter; higher = weaker reporter binding
# Settings: Eterna round: R107
# Procedure: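 RNA-MaP round R107: designed RNA switches with theophylline, tryptophan, arginine or FMN aptamers are transcribed on-chip within common flanks. They are titrated with a labelled K4 kissing-loop RNA reporter in RNA-MaP buffer (100 mM Tris pH 7.5, 80 mM KCl, 4 mM MgCl2), without ligand or with the indicated ligand. Median apparent KD per design.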
# [1] = input ligand: theophylline 20 uM
# [2] = input ligand: tryptophan 2.4 mM
# 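Also: bound reporter read as fluorescence of individual clusters on recovered sequencing chips by microscopy, with normalized cluster intensities fitted with a binding model.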
Sequence,apparent KD of K4 kissing-loop reporter (input ligand: FMN 200 uM),apparent KD of K4 kissing-loop reporter (input ligand: arginine 13.2 mM),apparent KD of K4 kissing-loop reporter (input ligand: none),apparent KD of K4 kissing-loop reporter [1],apparent KD of K4 kissing-loop reporter [2]
GUAUUGUGCCUGGAUACCAGACACCCGAGUGAUGUUCGGAGCAGAGUGAUGUUCUAAUAAGUCCCUUGGCAGCCGGUCGCAGUCG [Same State Theophylline B gf 4],810 nM,869 nM,914 nM,535 nM,886 nM
GUCAACCCAGCUGAUACCAGCCGGUUACGCACAUGCACACCCAGUGAUGUUGGGUAUUAGGGCCCUUGGCAGCAGCCUCUUGGCU [theeternabot_sameState_KL_Theo_B_30],165 nM,162 nM,169 nM,182 nM,149 nM
GUCCACACUGCAGGAUAUGGAGAAGUAGCGAGGGAGUUUGGAAGCACACCUCUGGCAGUGAUGUUGCCAGAAGGGCGGUGCGGCG [Inlaindi],109 nM,80.2 nM,80.6 nM,84.1 nM,93.9 nM
GUCCCAGUGAUGUUGGUAGGCGAGCGGGAUACCAGCCAAGACUCAGGCCCUUGGCAGCCCACAUAUCCCACGUAGGGAGUAGCUC [Same State - Theophylline A (Freestyle 18)],269 nM,172 nM,210 nM,274 nM,209 nM
GUCCUGAGUGAUGUUCGGGUCGUUCGGGAAGGAGCGCCCGCAAGGGCAGGUAGGUCGCCCGGAUCUCUCAGGUAACUGAGAGACC [#2 Same State - Arginine A Attempt #29 (HarryS)],563 nM,303 nM,448 nM,554 nM,383 nM
GUCGAUGGUAACCGCUGACGUCGAUGAUGGGAGGAUAUGUUAGUUGACAGAAGGCCCAGUGAUGUUGGGCGUUUGUCUUGGUAUA [Ustecexe],517 nM,143 nM,145 nM,134 nM,136 nM
GUCUCAAAAGAGGCAAGCACUCACGAGGACAAGGAUAUCAUUUCAAUGAGAAGGUGUCCUCGUCCUCAGUGAUGUUGAGGAGUGC [Omei KL FMN A SS E 1],423 nM,159 nM,259 nM,299 nM,233 nM
GUGAAGGAGCUGCAGUGAUGUUGCAGAGACUAGGAUAUCAGGAAACUGAGAAGGAGUCAACUCCUUCACCUAGACUGCAACAUAA [[F]''-[K1]-[K2]-[F1]-[F2]-[F2]'-[F1]'-[K]'_Design3],99.6 nM,69.7 nM,67.7 nM,75.7 nM,134 nM
GUGCAAAGCACCGGCACGAGCAGCCUAAAGGAGGAUAUGACGAAAGUCAGAAGGCCUAGUGAUGUUAGGUCUUGCUUGAGUCGAA [Omei KL FMN A Exc B v2],156 nM,214 nM,301 nM,323 nM,320 nM
GUGCAGUGAUGUUGCACGAGGAAAGACGAUACCAGCCGUAAAUAAGGCCCUUGGCAGCGUAGGCCAGCAUAAAGUAUGCUAGUCU [Oresbelaen],120 nM,107 nM,111 nM,89.2 nM,99 nM
GUGCGGCUAGUGAUGUUGGUUGCGUGGGAAGGAGCGCAGAAACAUGCAGGUAGGUCGCCCACAUCUCGGAUAAGAGACUAAUUCA [Letiisve],606 nM,182 nM,168 nM,220 nM,307 nM
GUGCGGCUAGUGAUGUUGGUUGCGUGGGAAGGAGCGCAGAAACAUGCAGGUAGGUCGCCCACAUCUCGGAUAAGAGAUUAAUUCC [Arorso],291 nM,153 nM,252 nM,262 nM,244 nM
GUGGAAAUCAGAAGGAGCGUCUACAAUAAGAAAACCAGUGAUGUUGGUUUUAUUUAAUGAAGACAGGUAGGUCGCUGAAUUUCUA [Same State Arginie B GF 20],138 nM,106 nM,118 nM,105 nM,118 nM
GUGUCCUAGUCGGCCGCCACUGGUACGAAAAUAGAAGGACGUGUGCACAUGAGUGAUGUUCAUGUCAGGACCGGGACUAGGGUGU [KL-SSTryp-B6 Brourdwalk2],281 nM,304 nM,367 nM,332 nM,316 nM
GUGUGUGUCGGAGGAUAUGCGAUAGAUGUAGGAGAAUUAGUGAUGUUAGUUAUGGUAGAGAUAGGAGUAGAAGGUUGGUGUGUGU [RHig 3/7 B],440 nM,413 nM,484 nM,572 nM,428 nM
GUUAAGUCGCGAAGGAGCGCGAACUAACAACGCAGUGAUGUUGCGUUGUACGUAGUAUAAUCGCAGGUAGGUCGCGCGACAGGCC [Arg B SS t16],116 nM,85.5 nM,98.4 nM,81 nM,92.3 nM
GUUACGCAUGGAAGGAGCGCAUGCUCAGCUAUAAGCUCAGUGAUGUUGAGCAUUUUUUUUUUGCAGGUAGGUCGCCAUGUGUAAC [Ex Arginine B K4 30],172 nM,188 nM,218 nM,191 nM,170 nM
GUUACGCAUGGAAGGAGCGCGAAAAUUAAAUGUGAGUGAUGUUCACAAAUAAAUUAAAUAACGCAGGUAGGUCGCCAUGUGUAAC [Ex Arginine B K4 3],80.3 nM,77.6 nM,89 nM,80.7 nM,80.9 nM
GUUAUCACGCGAAGGAGCGCGGAGCGAUAACGCAGUGAUGUUGCGUUAAACGUAAUAUAAUCGCAGGUAGGUCGCGCGUGAUACC [Arg B Ex t6],104 nM,80.2 nM,94.2 nM,82.1 nM,95.6 nM
GUUAUGGACCUGGAUACCAGCUGGUACUAAGUGGGAAAAUGAAAGUGAUGUUUUCGUGCUAGCCCUUGGCAGCCAGCAACCCGCA [XTheo-B6],120 nM,124 nM,121 nM,133 nM,110 nM
GUUCCCUACAAGGAUACCAGAACGUGUAGUCCGAGCGCUAGUGAUGUUGGCGUCUACCUCUUCCCUUGGCAGCCUGCAAAUCAGU [theeternabot_sameState_KL_Theo_B_48],269 nM,155 nM,236 nM,217 nM,200 nM

Sequence,apparent KD of K4 kissing-loop reporter (input ligand: FMN 200 uM),apparent KD of K4 kissing-loop reporter (input ligand: arginine 13.2 mM),apparent KD of K4 kissing-loop reporter (input ligand: none),apparent KD of K4 kissing-loop reporter [1],apparent KD of K4 kissing-loop reporter [2]
GUUGACUACCAGAGGUGAUGUAUAGUAUCGCGAGGACCGGUACGGCCGCCACUCGUGAAGAGAAAGGAGUGAUGUUCCGUAAUGG [C9],222 nM,254 nM,322 nM,340 nM,122 nM
GUUGGGUGGGUUAAAGAAUUUGUCUGACAACGAGGACCGGUACGGCCGCCACUCGAGUGAUGUUCGAGAAGAAAGAAAGAAAGAA,66.4 nM,123 nM,95.4 nM,146 nM,126 nM
UAAAUAAUAAAACGAGUGAUGUUCGACGAUACCAGCCUCGAUAGAGGCCCUUGGCAGCGUAAAUGAUCACAAAGCCAAGGAAUAA [#OpenEnded 1],158 nM,174 nM,158 nM,192 nM,134 nM
UAAAUAAUAAAACGAGUGAUGUUCGACGAUACCAGCCUCGAUAGAGGCCCUUGGCAGCGUAUGUGAUCACUAAGCCAAGGAAUAA [#02 K4 Theophylline A Exclusion],164 nM,175 nM,167 nM,196 nM,132 nM
UAAAUAAUUCAAGGAUAUGUUUUCUAUUUCGAGUGAUGUUCGGUCUUAAUAAAUUUAAUAGAUUAUACAGAAGGUGAUGGAUAGU [Astrostest],162 nM,164 nM,130 nM,188 nM,99.8 nM
UAAGAACAGUCGGCCGCCACUUGAACUACAGAAGUAGGUAUAGCACCGUGAGUGAUGUUCACUGAAAGGACCGGGACUUGCUCCG [theeternabot_sameState_KL_Trp_B_30],476 nM,310 nM,399 nM,430 nM,574 nM
UAAGAAUAAGUAGCAGUGAUGUUGCUACUACGAGGACCGGUACGGCCGCCACUCGAGCCGUACCAACUGCUACAAGGUACGAAUA [(H1)-(H2)-(Trp1)-(Trp2)-(T)'-(H)'-(T)''],281 nM,224 nM,242 nM,243 nM,257 nM
UAAGAGGACCACUGCGAGAGUCCUCGAAUACGAGGACCGGUACGGCCGCCACUCGAUAACUUGCAGUGAUGUUGCAAGUAAGAAU [BrourdMod 3 - Jieux - Same State Tryptophan A],98.9 nM,95.4 nM,94.1 nM,102 nM,81 nM
UAAGUAAGGGAUGAUACCAGAGAGUGAUGUUCUCAAGCGCUAUAGGAUAGCCUUAUCCACCUCCCUUGGCAGCAUACCCACUGGG [theeternabot_exclusion_KL_Theo_B_13],333 nM,311 nM,355 nM,346 nM,340 nM
UAAUAGUAGACCAGGUCUACUAUUAGGGAUACCAGCCUCGGUCGAGGCCCUUGGCAGCCCAGCGGGUCCAGUGAUGUUGGAUGUC [Beoratri],400 nM,284 nM,371 nM,207 nM,342 nM
UAAUCCUAGUGAUACUUAUCAAGUGGUGGGCGAGGACCGGUACGGCCGCCACUCGAAUAUGCAGUGAUGUUGUAAUCCGGAUAAU [Exclusion - Tryptophan A (Freestyle 8)],668 nM,722 nM,997 nM,1500 nM,397 nM
UAAUGCAUGACGGCCGCCACUAGUACUGGAGUGAUGUUGUGGUACGGCGGCAAUAUAGGGUGGACUAGGACCGGGUCAUGCAUAU [KL-XTryp-B12 #analogue],403 nM,336 nM,346 nM,380 nM,432 nM
UAAUUUAUAACUUUUAUAUAAUAAUCAGAUACCAGUGAUUAAUGUCACCCUUGGCAGCUGUAUAGAGUGAUGUUCUAAUGCUUAA [JR_SSTheophyA_Sub023],204 nM,198 nM,147 nM,223 nM,149 nM
UACAUAUAAUUAUUUCUACAUUUAUUUAGUCAGGAUAUCGAUUAAACGAGAAGGGACAAUAUCAAGUGAUGUUUGAUAAUUCAAA [JR_ExcFMNA_Sub010],84.6 nM,127 nM,75.4 nM,112 nM,58.6 nM
UACAUUGCAGUCUUCUUCGUCCUAGAAGACUAGGAUAUCAGGAAACUGAGAAGGAGUCUCUGCAGUGAUGUUGCAGCUAGGACGA [[K]'-[F2]'-[F1]'-[F1]-[F2]-[K1]-[K2]-[F]''_Design1],128 nM,134 nM,103 nM,157 nM,126 nM
UACGUUUUAUUAACACUAAAUACAACUGAAGGAGCGACAAUAAAGUCAGGUAGGUCGCAGAAUUAAUGAGUGAUGUUCAUUUUUA [JR_ExcArginiA_Sub015],56.2 nM,117 nM,65.9 nM,92 nM,48.1 nM
UACUAUAGUGAUGUUAUAGAUAAACCAGAUACCAGUGUAACAUAACACCCUUGGCAGCUGAUGAGGGAAAAUAUAAAUGUGUAUU [AstrosSSTHe-A#4newdesignED10.09],196 nM,204 nM,198 nM,197 nM,197 nM
UACUAUAGUGAUGUUAUAGAUAAACCAGAUACCAGUGUAACAUAACACCCUUGGCAGCUGAUGAGGGAACAUAUGAAAACAUAUG [AstroSTH-A#6newdesignED4.78],254 nM,209 nM,256 nM,215 nM,222 nM
UACUCUCCUCCUGAUACCAGAUAAAUAUUAAUACAUUAGUGAUGUUAAUGCCCAAACCCGAUCCCUUGGCAGCAGAAUAUGCAGG [theeternabot_sameState_KL_Theo_B_25],152 nM,240 nM,202 nM,258 nM,126 nM
UACUUAUAGUUAUUUCUACAUUUAUUUAGUCAGGAUAUCGAUUAGUCGAGAAGGGACAAUAUCAAGUGAUGUUUGAUAAUUCAAA [JR_ExcFMNA_Sub012],89.9 nM,161 nM,119 nM,158 nM,84.9 nM
UAGCGUAUUGAAGGAUAUUGCCUAGGAGUGAUGUUUGUAGAAAAUUUCCAACGGAACGAAUGUUAGCAAGAAGGUCAAUGGCCUU [theeternabot_exclusion_KL_FMN_B_40],230 nM,239 nM,404 nM,456 nM,281 nM
